Experimental data reported in patent US20100233095A1 (ADLYFE, published 2010).
pyrene = pyrene (fluorescent label); PBA = not defined here

Legend:
[1] = molecular target: T1, Aβ42 Fiber (insoluble Aβ42 target protein fibers) (UniProt P05067 672-713); assay: centrifugation of insoluble fibers with soluble probe, SDS-PAGE of the pellet, 40% TFE
T1 construct: domain: Aβ1-42; Insoluble fibrillar aggregate of Aβ42; also called Aβ 1-42 fiber; Aβ42 fibers
Experimental: Aβ42 Fiber (target protein) and peptide probe (SEQ ID NO:1) are incubated for 3 hours in the presence of increasing amounts of trifluoroethanol (TFE). The samples are centrifuged at 17,000×g for 30 minutes, and the pellets are denatured in sample buffer and analyzed by SDS-PAGE. Reference samples (Input) are shown for comparison. In this example, binding of target protein and peptide probe is clearly observed at the 40% TFE condition (compare left and right panels at 40% TFE, where the “peptide” band appears in the left panel but not the right panel).

[2] = molecular target: T2, biotinylated Aβ 42 oligomer (UniProt P05067 672-713, biotin (site not stated)); assay: streptavidin bead capture of biotinylated oligomer, SDS-PAGE
T2 construct: domain: Aβ1-42; Captured on streptavidin-coated magnetic beads; also called biotin-labeled soluble Aβ42 target protein oligomers; synthetic biotinylated oligomer
Experimental: Labeled peptide probe (SEQ ID NO:1, 2 μM) and biotinylated target protein (Aβ 42 oligomers, 2 μM) are incubated in PBS for 30 minutes. The mixture is then subjected to a capture step using magnetic beads coated with streptavidin. The beads are washed with PBS to remove unbound material and the captured material is analyzed by SDS-PAGE.

[3] = molecular target: T3, Aβ42 oligomer (soluble Aβ42 target protein oligomers) (UniProt P05067 672-713); assay: G25 size exclusion spin column, fluorescence of the eluant; 2 µM probe, 2 µM oligomer
T3 construct: domain: Aβ1-42; Soluble oligomeric aggregate; also called synthetic Aβ42 oligomer
Experimental: Labeled peptide probe (SEQ ID NO:1, 2 μM) and target protein (Aβ oligomers, 2 μM) are incubated together for 90 minutes in Hepes buffer (10 mM, pH 7.0) and then loaded onto a G25 size exclusion column, which has a 5000 Da molecular weight cutoff. The column is subjected to centrifugation at 735×g for 2 minutes. Eluants and column material are analyzed by a TECAN fluorimeter. This method is illustrated in FIG. 14A. Eluant also may be analyzed by SDS-PAGE (not shown).

[4] = molecular target: T4, bovine serum albumin (control substrate) (bovine, UniProt P02769 25-607); assay: pyrene monomer fluorescence of di-pyrene Peptide 22 over time, in water, substrate 0.03-0.3 uM
T4 construct: also called BSA
Experimental: FIG. 12 illustrates the specificity of Peptide 22 (SEQ ID NO:2) for soluble Aβ oligomers. The first two panels show the dose-dependent increase in pyrene monomer signal when Peptide 22 is incubated with soluble Aβ oligomers prepared by two different methods. The next two panels show no change in fluorescence when Peptide 22 is incubated with Aβ40 monomers and Aβ42 monomers. […] The last two panels show no change in fluorescence when Peptide 22 is incubated with control solutions (BSA or Anhydrase). […] (dotted line=0.3 uM substrate; dashed line=0.1 uM; dashed/dot line=0.03 uM; solid line=p22 alone).
Peptide 22 (100 nM) is incubated in water for 15 hours at room temperature with equimolar concentrations ([…]) of several potential A0 substrates: Aβ42 oligomer (type 1); Aβ42 oligomer (type 2); Aβ 1-42 monomer; Aβ 1-40 monomer; Aβ 1-42 fiber; Aβ 1-40 fiber; bovine serum albumin (control substrate); and carbonic anhydrase (control substrate).

[5] = molecular target: T5, streptavidin (on magnetic dynabeads) (UniProt P22629 37-163, limits assumed); assay: streptavidin bead pull-down (protocol B) without biotinylated oligomer, SDS-PAGE
T5 construct: Capture reagent; also called streptavidin bead; magnetic streptavidin beads
Experimental: In an alternative assay with Peptide 22 (protocol B, illustrated in FIG. 5A), […] biotinylated Aβ 42 oligomer was incubated with pre-washed streptavidin dynabeads at room temperature for 30 minutes. The complex was then washed two times with PBS buffer, and resuspended in PBS buffer. Equal volumes of bound oligomer and 4 μM labeled peptide probe (SEQ ID NO:2) were then combined, and incubated for 30 minutes at room temperature. Unbound material was then washed away with three PBS washes, followed by the collection of the bead complexes by magnet. The complex was then resuspended in 1×LDS buffer, boiled for 10 minutes, and loaded on 10% Bis-Tris gels.

[6] = molecular target: T3, Aβ42 oligomer (soluble Aβ42 target …); assay: pyrene fluorescence, aqueous assay; transition from excimer to self-fluorescence
[7] = molecular target: T3, Aβ42 oligomer (soluble Aβ42 target …); assay: pyrene fluorescence of di-pyrene Peptide 45 with 0, 0.03, 0.1 and 0.3 µM Aβ42 oligomer; free peptide 9:1

T3 sequence (P05067 672-713 limits assumed): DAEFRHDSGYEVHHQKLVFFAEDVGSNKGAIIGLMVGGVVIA
T4 sequence (P02769 25-607 limits assumed): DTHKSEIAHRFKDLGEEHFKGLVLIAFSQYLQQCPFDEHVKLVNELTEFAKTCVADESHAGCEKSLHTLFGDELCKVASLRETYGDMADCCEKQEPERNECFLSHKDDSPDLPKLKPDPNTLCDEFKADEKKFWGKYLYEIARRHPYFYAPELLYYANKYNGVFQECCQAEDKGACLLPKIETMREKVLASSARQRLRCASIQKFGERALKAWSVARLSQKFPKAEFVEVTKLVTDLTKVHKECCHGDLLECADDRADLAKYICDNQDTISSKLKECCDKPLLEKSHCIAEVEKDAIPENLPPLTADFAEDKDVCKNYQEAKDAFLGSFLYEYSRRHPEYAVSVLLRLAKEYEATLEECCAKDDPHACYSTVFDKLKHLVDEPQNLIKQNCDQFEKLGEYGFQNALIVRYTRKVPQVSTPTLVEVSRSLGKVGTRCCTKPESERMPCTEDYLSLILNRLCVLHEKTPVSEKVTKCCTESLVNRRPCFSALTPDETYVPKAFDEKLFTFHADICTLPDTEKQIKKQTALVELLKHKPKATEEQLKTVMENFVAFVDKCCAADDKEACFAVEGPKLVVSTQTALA
T5 sequence (P22629 37-163 limits assumed): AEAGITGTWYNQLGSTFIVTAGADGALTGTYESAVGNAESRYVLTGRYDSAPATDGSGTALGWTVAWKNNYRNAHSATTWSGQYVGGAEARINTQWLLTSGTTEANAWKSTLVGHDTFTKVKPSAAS
T1 sequence (P05067 672-713 limits assumed): as the sequence (P05067 672-713 limits assumed) above
T2 sequence (P05067 672-713 limits assumed): as above

B1: peptide probe of SEQ ID NO:1 (WT reference sequence, Aβ protein residues 16-35 with added C-terminal Lys) (peptide)
peptide: {PBA}-KLVFFAEDVGSNKGAIIGLMK(PBA)-NH2
modifications: reading uncertain; also: labels are the default, some assays say only 'labeled', centrifugation assay may use unlabeled peptide
notes: Synthetic probe; also called wildtype
binding result [1]: binds | binding result [2]: binds | binding result [3]: binds

B2: Peptide 22 (SEQ ID NO:2) (peptide)
peptide: pyrene-KLVFFAEDVGSNKHAIIELMK(pyrene)-NH2
notes: Designed variant of the Aβ 16-35 probe with a salt bridge; also called P22; p22
binding result [4]: no binding (tested: 0.3 uM) | binding result [5]: no binding (tested: 4 µM)

B3: Peptide 22 variation 2 (SEQ ID NO:15) (peptide)
peptide: pyrene-KLVFFAEDVGSNKKAIIELMK(pyrene)-NH2
notes: also called P22 v.2; Peptide 22 var
binding result [6]: binds

B4: Peptide 22 variation 1 (SEQ ID NO:14) (peptide)
peptide: pyrene-KLVFFAEDVGSNKRAIIELMK(pyrene)-NH2
notes: also called P22 v.1; Peptide 22 var
binding result [6]: binds

B5: Peptide 45 (SEQ ID NO:4) (peptide)
peptide: pyrene-KAAAKLVFFAEDVGSNKHAIIELMK-NH2
modifications: not fully specified (residue 25)
notes: also called P45
excimer:monomer fluorescence ratio [7]: 20 ratio (x:1)
